Results as given in patent US20100068195A1.

How the values were obtained:
[1] = biological target: mannose-6-phosphate (M6P) receptor; experiment: M6P receptor affinity column (Affi-Gel 15): 6 ug GALNS loaded, eluted with a mannose-6-phosphate gradient, quantified by GALNS ELISA
[2] = biological target: mannose-6-phosphate (M6P) receptor; experiment: M6P receptor plate binding assay: plates coated with 4 ug/mL M6P receptor, GALNS 0.16-10 nM, bound enzyme read by 4MU-Gal-6S activity, single-site fit
[3] = biological target: mannose-6-phosphate (M6P) receptor; experiment: M6P receptor plate binding assay (receptor-coated plate, bound enzyme read by activity)

B1: recombinant human N-acetylgalactosamine-6-sulfatase (GALNS) produced from G71S clone 4 (enzyme)
chain: APQPPNILLLLMDDMGWGDLGVYGEPSRETPNLDRMAAEGLLFPNFYSANPLCSPSRAALLTGRLPIRNGFYTTNAHARNAYTPQEIVGGIPDSEQLLPELLKKAGYVSKIVGKWHLGHRPQFHPLKHGFDEWFGSPNCHFGPYDNKARPNIPVYRDWEMVGRYYEEFPINLKTGEANLTQIYLQEALDFIKRQARHHPFFLYWAVDATHAPVYASKPFLGTSQRGRYGDAVREIDDSIGKILELLQDLHVADNTFVFFTSDNGAALISAPEQGGSNGPFLCGKQTTFEGGMREPALAWWPGHVTAGQVSHQLGSIMDLFTTSLALAGLTPPSDRAIDGLNLLPTLLQGRLMDRPIFYYRGDTLMAATLGQHKAHFWTWTNSWENFRQGIDFCPGQNVSGVTTHNLEDHTKLPLIFHLGRDPGERFPLSFASAEYQEALSRITSVVQQHQEALVPAQPQLNVCNWAVMNWAPPGCEKLGKCLTPPESIPKKCLWSH
modifications: Cys at position 53 of the precursor (position 79 of SEQ ID NO:4) converted to Calpha-formylglycine (FGly), about 90%; N-linked glycans at Asn178 (bis-phosphorylated mannose 7, BPM7) and Asn397 (oligomannose-type), numbered on the secreted polypeptide
For B1, the M6P Receptor Column Binding: % Bound [1] was 56% and the Kd [2] was 2.4 nM.

B2: recombinant human N-acetylgalactosamine-6-sulfatase (GALNS) produced from G71S clone C2 (enzyme)
chain: APQPPNILLLLMDDMGWGDLGVYGEPSRETPNLDRMAAEGLLFPNFYSANPLCSPSRAALLTGRLPIRNGFYTTNAHARNAYTPQEIVGGIPDSEQLLPELLKKAGYVSKIVGKWHLGHRPQFHPLKHGFDEWFGSPNCHFGPYDNKARPNIPVYRDWEMVGRYYEEFPINLKTGEANLTQIYLQEALDFIKRQARHHPFFLYWAVDATHAPVYASKPFLGTSQRGRYGDAVREIDDSIGKILELLQDLHVADNTFVFFTSDNGAALISAPEQGGSNGPFLCGKQTTFEGGMREPALAWWPGHVTAGQVSHQLGSIMDLFTTSLALAGLTPPSDRAIDGLNLLPTLLQGRLMDRPIFYYRGDTLMAATLGQHKAHFWTWTNSWENFRQGIDFCPGQNVSGVTTHNLEDHTKLPLIFHLGRDPGERFPLSFASAEYQEALSRITSVVQQHQEALVPAQPQLNVCNWAVMNWAPPGCEKLGKCLTPPESIPKKCLWSH
modifications: active site Cys at position 53 of the precursor (position 79 of SEQ ID NO:4) converted to Calpha-formylglycine (percent not printed for this clone); N-linked glycans at Asn178 and Asn397, bis-phosphorylated oligomannose 0.69 mol/mol
B2 showed a Kd [3] of 5.7 nM.
